Results taken from article PMC7885793 (Biochemistry, 2019).

Columns and labels:
Assay in all cases: cell-based or functional assay
[1] = target: T1, PLCβ3-Δ892 (residues 10–892) (Homo sapiens, UniProt Q01970 10-892)
T1 sequence (looked up): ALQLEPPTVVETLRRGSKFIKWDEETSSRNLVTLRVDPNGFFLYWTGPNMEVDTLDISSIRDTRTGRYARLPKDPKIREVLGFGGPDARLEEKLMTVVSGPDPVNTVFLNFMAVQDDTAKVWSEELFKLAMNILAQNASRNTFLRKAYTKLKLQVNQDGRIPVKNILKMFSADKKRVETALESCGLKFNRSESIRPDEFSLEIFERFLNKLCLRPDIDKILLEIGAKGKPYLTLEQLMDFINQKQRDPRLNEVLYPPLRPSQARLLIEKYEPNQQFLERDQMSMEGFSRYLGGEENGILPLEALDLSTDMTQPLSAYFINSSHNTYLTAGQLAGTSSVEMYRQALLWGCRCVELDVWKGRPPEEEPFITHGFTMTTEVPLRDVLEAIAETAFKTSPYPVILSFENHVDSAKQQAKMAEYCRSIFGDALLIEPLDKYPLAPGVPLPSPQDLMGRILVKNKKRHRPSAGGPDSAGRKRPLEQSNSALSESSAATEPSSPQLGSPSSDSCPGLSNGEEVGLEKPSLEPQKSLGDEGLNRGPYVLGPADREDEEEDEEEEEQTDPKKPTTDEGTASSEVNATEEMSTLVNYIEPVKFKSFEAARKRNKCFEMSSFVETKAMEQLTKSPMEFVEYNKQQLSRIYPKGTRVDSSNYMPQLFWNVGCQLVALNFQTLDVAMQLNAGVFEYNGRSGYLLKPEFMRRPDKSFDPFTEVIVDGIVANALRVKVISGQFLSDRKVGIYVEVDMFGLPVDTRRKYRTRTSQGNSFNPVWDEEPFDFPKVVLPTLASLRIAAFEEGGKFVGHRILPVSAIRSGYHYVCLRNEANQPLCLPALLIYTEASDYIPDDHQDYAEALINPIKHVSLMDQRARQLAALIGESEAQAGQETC

[2] = target: T2, Homo sapiens PLCβ3 (residues 10–1234) (Homo sapiens, UniProt Q01970 10-1234)
T2 sequence (looked up): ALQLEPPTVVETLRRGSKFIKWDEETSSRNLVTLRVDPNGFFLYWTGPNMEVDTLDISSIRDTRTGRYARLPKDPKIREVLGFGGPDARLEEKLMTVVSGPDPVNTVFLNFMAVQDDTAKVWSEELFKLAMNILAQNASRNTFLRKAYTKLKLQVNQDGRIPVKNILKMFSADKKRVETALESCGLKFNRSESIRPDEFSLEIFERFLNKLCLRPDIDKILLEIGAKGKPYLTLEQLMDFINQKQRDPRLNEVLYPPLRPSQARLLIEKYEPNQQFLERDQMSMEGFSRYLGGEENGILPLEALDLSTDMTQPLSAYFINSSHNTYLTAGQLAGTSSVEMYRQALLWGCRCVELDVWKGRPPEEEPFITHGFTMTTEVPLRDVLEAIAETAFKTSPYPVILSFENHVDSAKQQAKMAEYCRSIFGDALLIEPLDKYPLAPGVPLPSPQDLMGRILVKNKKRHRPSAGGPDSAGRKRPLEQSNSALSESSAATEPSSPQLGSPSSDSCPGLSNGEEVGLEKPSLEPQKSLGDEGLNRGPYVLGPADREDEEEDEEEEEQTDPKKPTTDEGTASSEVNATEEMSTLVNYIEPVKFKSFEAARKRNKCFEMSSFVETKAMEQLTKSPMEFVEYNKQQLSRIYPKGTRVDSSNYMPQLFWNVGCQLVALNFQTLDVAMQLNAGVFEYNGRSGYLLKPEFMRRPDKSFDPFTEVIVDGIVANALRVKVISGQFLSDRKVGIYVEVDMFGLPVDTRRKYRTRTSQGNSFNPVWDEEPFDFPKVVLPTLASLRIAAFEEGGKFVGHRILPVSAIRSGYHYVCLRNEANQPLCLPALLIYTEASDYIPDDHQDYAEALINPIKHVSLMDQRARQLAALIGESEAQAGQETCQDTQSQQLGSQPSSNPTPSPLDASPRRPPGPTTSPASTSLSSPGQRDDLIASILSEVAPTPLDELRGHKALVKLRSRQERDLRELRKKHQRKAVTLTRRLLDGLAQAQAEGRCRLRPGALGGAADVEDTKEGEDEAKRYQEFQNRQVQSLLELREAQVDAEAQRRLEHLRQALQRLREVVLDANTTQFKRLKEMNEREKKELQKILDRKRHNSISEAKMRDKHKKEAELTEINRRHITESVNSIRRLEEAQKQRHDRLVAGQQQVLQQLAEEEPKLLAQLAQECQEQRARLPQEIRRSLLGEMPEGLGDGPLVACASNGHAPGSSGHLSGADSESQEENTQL

[3] = target: T3, PLCβ3-Δ892 ΔXY1 (Homo sapiens, UniProt Q01970 10-892, ΔXY1 (residues 471–569))
T3 sequence (looked up): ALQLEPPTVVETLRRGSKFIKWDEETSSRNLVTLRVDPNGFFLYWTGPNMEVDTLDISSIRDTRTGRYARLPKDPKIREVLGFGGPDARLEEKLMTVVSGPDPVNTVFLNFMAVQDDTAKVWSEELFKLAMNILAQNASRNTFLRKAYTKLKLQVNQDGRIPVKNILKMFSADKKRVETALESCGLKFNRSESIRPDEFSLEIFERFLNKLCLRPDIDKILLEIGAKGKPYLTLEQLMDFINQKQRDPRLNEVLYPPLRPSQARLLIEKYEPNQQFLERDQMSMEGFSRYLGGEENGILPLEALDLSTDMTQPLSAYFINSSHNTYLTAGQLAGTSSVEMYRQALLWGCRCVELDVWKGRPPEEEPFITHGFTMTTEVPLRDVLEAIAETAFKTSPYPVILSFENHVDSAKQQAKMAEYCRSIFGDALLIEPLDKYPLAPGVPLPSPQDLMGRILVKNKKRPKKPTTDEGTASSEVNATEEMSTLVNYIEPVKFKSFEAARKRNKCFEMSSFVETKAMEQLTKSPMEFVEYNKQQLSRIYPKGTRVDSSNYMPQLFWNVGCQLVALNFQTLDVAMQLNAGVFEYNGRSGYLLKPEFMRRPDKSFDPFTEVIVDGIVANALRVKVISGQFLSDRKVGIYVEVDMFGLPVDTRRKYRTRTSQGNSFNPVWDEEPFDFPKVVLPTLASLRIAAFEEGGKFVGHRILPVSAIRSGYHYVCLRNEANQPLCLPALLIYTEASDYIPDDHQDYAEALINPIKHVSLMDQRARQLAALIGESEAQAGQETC

x-fold maximum activity over basal (complex against the PLCβ3 variant alone) [1]: 22 x-fold | x-fold maximum activity over basal (complex against the PLCβ3 variant alone) [2]: 8 x-fold | x-fold maximum activity over basal (complex against the PLCβ3 variant alone) [3]: 2 x-fold
B1: Activated Gαq (Gαq·GDP-ALF4^−) (natural protein, murine, UniProt P21279 7-359, looked up)
chain: MACCLSEEAKEARRINDEIERQLRRDKRDARRELKLLLLGTGESGKSTFIKQMRIIHGSGYSDEDKRGFTKLVYQNIFTAMQAMIRAMDTLKIPYKYEHNKAHAQLVREVDVEKVSAFENPYVDAIKSLWNDPGIQECYDRRREYQLSDSTKYYLNDLDRVADPSYLPTQQDVLRVRVPTTGIIEYPFDLQSVIFRMVDVGGQRSERRKWIHCFENVTSIMFLVALSEYDQVLVESDNENRMEESKALFRTIITYPWFQNSSVILFLNKKDLLEEKIMYSHLVDYFPEYDGPQRDAQAAREFILKMFVDLNPDSDKIIYSHFTCATDTENIRFVFAAVKDTILQLNLKEYNLV
